Reference: patent US5834428A, “Glucagon-like peptide-2 and its therapeutic use” (1149336 Ontario Inc., priority 1996, dated 1998)
Where “and” joins values, the source holds several entries; their conditions need not be identical. Equal values may be shown once. Ends that are not written are not given here.

Legend:
[1] = Complete autopsy after long term administration; assay type: in vivo, mice; details: 5 μg once a day s.c. in 10% gelatin for 4, 8 or 12 weeks
Protocol: Effect of Long Term Administration: Rat GLP-2 in a 10% gelatin formulation was administered s.c. in a single dose of 5 μg once a day continuously for 4 weeks (panel A), for 8 weeks (panel B) or for 12 weeks (panel C). FIG. 5 illustrates GLP-2 mediated effects on small bowel weight (BW) and in the crypt plus villus heights (PJ, DJ and DI) in treated groups (T), relative to a control (C) receiving 10% gelatin alone. […] A similar response was noted also for the distal jejunum.

[2] = Weight of mice during 10-day peptide treatment (Example 1); assay type: in vivo; details: individual mice
Protocol: (§1) In a first experiment designed to investigate the effect of glicentin on small bowel growth, two groups of six mice (8 week, CD1 females from Charles River Laboratories) were treated as follows. Each mouse received 41.5 μg injections every 12 hours for 10 days. The injections were delivered subcutaneously in a final volume of 16% gelatin, with 0.5 cc injected subcutaneously every 12 hours. […] Control mice received 0.5 cc of 16% gelatin solution, but no peptide, every 12 hours. Mice were fed standard rat chow with free access to food and water, until 12 hours prior to sacrifice, at which time food was withheld, and water only was given. The weight of the small bowel was ascertained by excising the entire small bowel, and removing the stomach (proximal end) and appendix/cecum/large bowel (distal end). The remaining small bowel was cleaned with saline to remove feces, and weighed.
(§2) Mice were injected with 0.5 ml of the 16% gelatin solution, without or with peptide (62.5 μg/dose). Four groups of four mice (8 week, CD1 females from Charles River Laboratories) were injected twice daily for 10 days.

Solubility in water = assay type: physicochemical; details: preparation of injection solution
small bowel = assay: Small bowel weight in mice after 10 days of s.c. peptide in 16% gelatin (Example 1); assay type: in vivo; details: for Small bowel weight Day 10: individual mice
Protocol: as §1, with “weighed. Results were as follows:” for “weighed.”
GLP-2 formulations for injection were prepared as follows: Gelatin was dissolved in warm water to a weight ratio of 16%, and the 50 mL solution was autoclaved and cooled to room temperature. A peptide solution was then separately prepared by mixing 5 mg of GLP-2 with water at a volume slightly less than 10 mL, and then adding 1N acetic acid in a volume (10-20 μL) sufficient to dissolve the peptide completely. The pH was then readjusted to about 7.0 by addition of an equal volume of 1N NaOH (10-20 μL), and the solution volume was then adjusted to 10 mL by addition of distilled water. To prepare the formulation for injection, the 10 mL peptide solution and the 50 mL solution of 16% gelatin were combined with mixing, and aliquots for injection were drawn into a 0.5 mL insulin syringe.
as §2

[3] = 62.5 μg/dose twice daily for 10 days in 16% gelatin
[4] = group of four mice, 62.5 μg/dose twice daily for 10 days in 16% gelatin
[5] = 41.5 μg s.c. every 12 hours for 10 days in 16% gelatin

With “HADGSFSDEMNTILDNLATRDFINWLIQTKITD [rat GLP-2]” the “histological abnormalities at autopsy” value [1] was “no histological abnormalities found” and the “Weight of Mice Day 10” value [2, 3] was 23.7 gm and 25.7 gm and 27.1 gm and 25.4 gm.

With “GLP-1: human GLP-1 (7-36 amide), custom synthesized by tBoc-based solid phase approach [reference compound]” the solubility in water (Solubility in water) was “relative greater solubility in water”, the “Small bowel weight % body wt” value (small bowel; [4]) was 5.26 ± .2 % body wt and the “Small bowel weight Average” value (small bowel; [4]) was 1.33 ± .04 gm. The “Small bowel weight Day 10” value (small bowel; [3]) was 1.4 gm and 1.3 gm and 1.2 gm and the “Weight of Mice Day 10” value [2, 3] was 24.8 gm and 22.8 gm and 26.5 gm.

B1: Glicentin: glicentin (rat), proglucagon gene-derived peptide (peptide, UniProt P06883 21-89, looked up)
Glicentin: HAPQDTEENARSFPASQTEPLEDPDQINEDKRHSQGTFTSDYSKYLDSRRAQDFVQWLMNTKRNRNNIA
modifications: Glicentin
notes: glicentin (rat), proglucagon gene-derived peptide
For B1, the solubility in water (Solubility in water) was “dissolved easily”, the intestinotrophic effect (small bowel; 41.5 μg s.c. every 12 hours for 10 days) was “modest” and the “Small bowel weight Day 10” value (small bowel; [5]) was 1.6 gm and 1.7 gm and 1.3 gm and 1.9 gm. The “Weight of Mice Day 10” value [2, 5] was 26.6 gm and 26.2 gm and 24.5 gm and 24.7 gm and 25.8 gm.
